# Molecular target: CD22 (UniProt P20273)
# Test: cell-based or functional assay
# Chain of UniProt P20273 (P20273 20-847 limits assumed): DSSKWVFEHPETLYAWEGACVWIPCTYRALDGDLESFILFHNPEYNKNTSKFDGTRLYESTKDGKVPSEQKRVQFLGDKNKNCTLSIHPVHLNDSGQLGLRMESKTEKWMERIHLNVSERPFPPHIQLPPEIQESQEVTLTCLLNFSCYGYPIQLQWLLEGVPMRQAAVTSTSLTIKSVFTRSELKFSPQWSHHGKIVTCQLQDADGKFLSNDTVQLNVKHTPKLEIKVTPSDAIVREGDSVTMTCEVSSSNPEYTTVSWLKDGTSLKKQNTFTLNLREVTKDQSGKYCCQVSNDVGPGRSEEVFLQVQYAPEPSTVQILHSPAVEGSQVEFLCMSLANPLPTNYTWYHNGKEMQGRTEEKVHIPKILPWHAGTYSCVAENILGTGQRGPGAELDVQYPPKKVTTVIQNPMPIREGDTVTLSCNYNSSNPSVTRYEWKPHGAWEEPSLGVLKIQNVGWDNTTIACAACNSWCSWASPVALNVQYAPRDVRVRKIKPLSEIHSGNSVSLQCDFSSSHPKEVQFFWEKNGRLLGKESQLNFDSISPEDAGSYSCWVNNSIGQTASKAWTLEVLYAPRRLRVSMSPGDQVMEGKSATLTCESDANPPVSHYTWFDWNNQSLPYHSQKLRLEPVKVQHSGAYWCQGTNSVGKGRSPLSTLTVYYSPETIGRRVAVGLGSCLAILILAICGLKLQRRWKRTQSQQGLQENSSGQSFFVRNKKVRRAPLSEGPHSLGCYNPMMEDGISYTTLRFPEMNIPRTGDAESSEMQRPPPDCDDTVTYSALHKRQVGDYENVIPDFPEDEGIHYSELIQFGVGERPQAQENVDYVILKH
substance,measurement,value
HA22-LR,cytotoxicity IC50 (ng/ml) on CA46 cells,0.11 ng/mL
same,cytotoxicity IC50 (ng/ml) on Daudi cells,0.18 ng/mL
same,cytotoxicity IC50 (ng/ml) on Raji cells,0.41 ng/mL
